Substrate: CC(=O)O
Assay: purified protein
Details: ATP 10 mM, CoA 0.1 mM, MgCl2 5 mM, acetate salt 2.5-80 mM

B1: DtACS (Dunaliella tertiolecta) (protein)
chain: MKCSALPAGSRPQALATHTSMQAPLLLRSLAPSVPKLAQPAGTPLVHSSLPCYRKSRSCSHLASASSTAPGSTTMKPQPLLTNFIQSKEEYDALYARSIADPASFWGDVAEQFHWEKKWDPDHHSFNFDVTKGPINVEWFKGGFTNICYNALDRHVMTGHGNQHCMLFEGNEPGSDGAMTYTQVLDEVCRLANWMKAQGIGKGDCVAIYMPMVMQLPIAMLACARIGAVHSVVFGGFSADALAGRMEDCKARVLLTCNGGMRATKKIELKQIADQAIEMCASRGHTVDSVLVFANHKDGVAGAEAAGTPFTQGRDAWWQPTLAEFPALCDVAWVPAEHPLFLLYTSGSTGKPKGVLHTTGGYMVYAATTTKHAFQLQPGDVFWCTADCGWITGHSYLAYGPLLNRAVSVVFEGVPTHPTPARSWEIIDKYQVKQFYTAPTALRSLMRSGDEWLSSTSRQSLQVLGTVGEPINPEAWHWFHDLVGNGRCPVVDTWWQTETGGHMILPLPRAWPAKPGSATLPFFGVEPVILDDKGVELQGECEGLLMMRRPWPSTLRSVYGDHKRYEENYFGPYPGYYFTGDGARRDKDGYYWITGRVDDVINVSGHRIGTAEVESAIAAHHDCAEAAVAGYEHPVKGQGIYAFVVLKEGVVPNDQLKKEMWTNVRTTIGAFAAPDVIHWAPGLPKTRSGKIMRRVLRKIAGGQENELGDTSTLADPSIVRQLIETRN
Tris-Cl pH 8.0, 37 °C (general assay)
  Km: 3.59 mM
Tris-Cl pH 8.0, 37 °C (general assay; mix lists 10 mM potassium acetate as substrate)
  Km: 4.66 mM
